B1: 22008 (protein)
chain: MALPVTALLLPLALLLHAARPQLQLQESGPGLVKPSETLSLTCTVSGDSISSGDYYWGWIRQPPGKGLEWIGHIYYSGVTYYNPSLKSRVTISVDTSRNQFSLKLSSVTAADTAVYYCTREDSSNWRSRGQGTLVTVSSLEDLKNVFPPEVAVFEPSEAEISHTQKATLVCLATGFYPDHVELSWWVNGKEVHSGVCTDPQPLKEQPALNDSRYCLSSRLRVSATFWQNPRNHFRCQVQFYGLSENDEWTQDRAKPVTQIVSAEAWGRADCGFTSESYQQGVLSATILYEILLGKATLYAVLVSALVLMAMVKRKDSRGRAKRSGSGATNFSLLKQAGDVEENPGPTSMDWIWRILFLVGAATGAHSFEVQLLESGGGLVQPGGSLRLSCAASGFIFSSYAMSWVRQAPGKGQEWVSGVSGTGVNTYYADSVKGRFTISRDNSKNTLYLQMNSLRAEDTAVYYCASGKGWDSGSWYEDYRGQGTLVTVSSTRIQNPDPAVYQLRDSKSSDKSVCLFTDFDSQTNVSQSKDSDVYITDKCVLDMRSMDFKSNSAVAWSNKSDFACANAFNNSIIPEDTFFPSPESSCDVKLVEKSFETDTNLNFQNLSVIGFRILLLKVAGFNLLMTLRLWSSRAKRSGSGVKQTLNFDLLKLAGDVESNPGPSRGHMTEYKPTVRLATRDDVPRAVRTLAAAFADYPATRHTVDPDRHIERVTELQELFLTRVGLDIGKVWVADDGAAVAVWTTPESVEAGAVFAEIGPRMAELSGSRLAAQQQMEGLLAPHRPKEPAWFLATVGVSPDHQGKGLGSAVVLPGVEAAERAGVPAFLETSAPRNLPFYERLGFTVTADVEVPEGPRTWCMTRKPGA
B2: 22031 (protein)
chain: MALPVTALLLPLALLLHAARPQLQLQESGPGLVKPSETLSLTCTVSGDSISSGDYYWGWIRQPPGKGLEWIGHIYYSGVTYYNPSLKSRVTISVDTSRNQFSLKLSSVTAADTAVYYCTREDSSNWRSRGQGTLVTVSSLEGSPIKTDVITMDPKDNCSKDANDTLLLQLTNTSAYYMYLLLLLKSVVYFAIITCCLLRRTAFCCNGEKSRAKRSGSGATNFSLLKQAGDVEENPGPTSMDWIWRILFLVGAATGAHSFEVQLVESGGGVVQPGRSLRLSCAASGFSFSGYGMHWVRQAPGKGLEWVAYISYDGSNKYYADSVKGRFTISRDNSKNTLYLQMNSLRAEDTAVYYCAKDPAWGLRLGESSSYDFDIWGQGTMVTVSSTRIQNPDPAVYQLRDSKSSDKSVCLFTDFDSQTNVSQSKDSDVYITDKCVLDMRSMDFKSNSAVAWSNKSDFACANAFNNSIIPEDTFFPSPESSCDVKLVEKSFETDTNLNFQNLSVIGFRILLLKVAGFNLLMTLRLWSSRAKRSGSGVKQTLNFDLLKLAGDVESNPGPSRGHMTEYKPTVRLATRDDVPRAVRTLAAAFADYPATRHTVDPDRHIERVTELQELFLTRVGLDIGKVWVADDGAAVAVWTTPESVEAGAVFAEIGPRMAELSGSRLAAQQQMEGLLAPHRPKEPAWFLATVGVSPDHQGKGLGSAVVLPGVEAAERAGVPAFLETSAPRNLPFYERLGFTVTADVEVPEGPRTWCMTRKPGA
B3: 22032 (protein)
chain: MALPVTALLLPLALLLHAARPQLQLQESGPGLVKPSETLSLTCTVSGDSISSGDYYWGWIRQPPGKGLEWIGHIYYSGVTYYNPSLKSRVTISVDTSRNQFSLKLSSVTAADTAVYYCTREDSSNWRSRGQGTLVTVSSLEGSEVKTDSTDHVKPKETENTKQPSKSCHKPKAIVHTEKVNMMSLTVLGLRMLFAKTVAVNFLLTAKLFFLRAKRSGSGVKQTLNFDLLKLAGDVESNPGPTSMDWIWRILFLVGAATGAHSFEVQLVESGGGVVQPGRSLRLSCAASGFSFSGYGMHWVRQAPGKGLEWVAYISYDGSNKYYADSVKGRFTISRDNSKNTLYLQMNSLRAEDTAVYYCAKDPAWGLRLGESSSYDFDIWGQGTMVTVSSTRIQNPDPAVYQLRDSKSSDKSVCLFTDFDSQTNVSQSKDSDVYITDKCVLDMRSMDFKSNSAVAWSNKSDFACANAFNNSIIPEDTFFPSPESSCDVKLVEKSFETDTNLNFQNLSVIGFRILLLKVAGFNLLMTLRLWSSRAKRSGSGVKQTLNFDLLKLAGDVESNPGPSRGHMTEYKPTVRLATRDDVPRAVRTLAAAFADYPATRHTVDPDRHIERVTELQELFLTRVGLDIGKVWVADDGAAVAVWTTPESVEAGAVFAEIGPRMAELSGSRLAAQQQMEGLLAPHRPKEPAWFLATVGVSPDHQGKGLGSAVVLPGVEAAERAGVPAFLETSAPRNLPFYERLGFTVTADVEVPEGPRTWCMTRKPGA
B4: 22006 (protein)
chain: MALPVTALLLPLALLLHAARPLEGKPIPNPLLGLDSTGSGEDLKNVFPPEVAVFEPSKAEIAHTQKATLVCLATGFYPDHVELSWWVNGKEVHSGVCTDPQPLKEQPALNDSRYCLSSRLRVSATFWQNPRNHFRCQVQFYGLSENDEWTQDRAKPVTQIVSAEAWGRADCGITSASYHQGVLSATILYEILLGKATLYAVLVSALVLMAMVKRKDSRGRAKRSGSGATNFSLLKQAGDVEENPGPTSTMALPVTALLLPLALLLHAARPEVQLVESGGGLVQPGGSLRLSCTFSGGTFSSYTMGWFRQAPGKEREFVAEVRWGGVTTYSNSLKDRFSISEDSVKNAVYLQMNSLKPEDTAVYYCAAVRQMYMTVVPDYWGQGTLVTVSSTREQKLISEEDGSGIQNPDPAVYQLRDSKSSDKSVCLFTDFDSQTNVSQSKDSDVYITDKCVLDMRSMDFKSNSAVAWSNKSDFACANAFNNSIIPEDTFFPSSDVPCDVKLVEKSFETDTNLNFQNLSVIGFRILLLKVAGFNLLMTLRLWSSRAKRSGSGVKQTLNFDLLKLAGDVESNPGPSRGHMTEYKPTVRLATRDDVPRAVRTLAAAFADYPATRHTVDPDRHIERVTELQELFLTRVGLDIGKVWVADDGAAVAVWTTPESVEAGAVFAEIGPRMAELSGSRLAAQQQMEGLLAPHRPKEPAWFLATVGVSPDHQGKGLGSAVVLPGVEAAERAGVPAFLETSAPRNLPFYERLGFTVTADVEVPEGPRTWCMTRKPGA
B5: 22011 (protein)
chain: MALPVTALLLPLALLLHAARPQLQLQESGPGLVKPSETLSLTCTVSGDSISSGDYYWGWIRQPPGKGLEWIGHIYYSGVTYYNPSLKSRVTISVDTSRNQFSLKLSSVTAADTAVYYCTREDSSNWRSRGQGTLVTVSSLEDLKNVFPPEVAVFEPSEAEISHTQKATLVCLATGFYPDHVELSWWVNGKEVHSGVCTDPQPLKEQPALNDSRYCLSSRLRVSATFWQNPRNHFRCQVQFYGLSENDEWTQDRAKPVTQIVSAEAWGRADCGFTSESYQQGVLSATILYEILLGKATLYAVLVSALVLMAMVKRKDSRGRAKRSGSGATNFSLLKQAGDVEENPGPTSMDWIWRILFLVGAATGAHSFEQLQLQESGPGLVKPSETLSLTCTVSGGSISSGDYYWGWIRQPPGKGLEWIGHIYYSGATYYNPSLKSRVTISVDTSRNQFSLKLSSVTAADTAVYYCTRDDSSNWRSRGQGTLVTVSSTRIQNPDPAVYQLRDSKSSDKSVCLFTDFDSQTNVSQSKDSDVYITDKCVLDMRSMDFKSNSAVAWSNKSDFACANAFNNSIIPEDTFFPSPESSCDVKLVEKSFETDTNLNFQNLSVIGFRILLLKVAGFNLLMTLRLWSSRAKRSGSGVKQTLNFDLLKLAGDVESNPGPSRGHMTEYKPTVRLATRDDVPRAVRTLAAAFADYPATRHTVDPDRHIERVTELQELFLTRVGLDIGKVWVADDGAAVAVWTTPESVEAGAVFAEIGPRMAELSGSRLAAQQQMEGLLAPHRPKEPAWFLATVGVSPDHQGKGLGSAVVLPGVEAAERAGVPAFLETSAPRNLPFYERLGFTVTADVEVPEGPRTWCMTRKPGA

system: RAJI cells; experiment: JNG assay, co-culture with RAJI cells; format: cell-based; conditions: JNG cells expressing construct, co-culture with Raji
Protocol: Cellular supernatant is collected and assayed for the induction of cytokines (e.g., IL2).
JNG (Jurkat cells expressing EGFP under an NFAT promoter) were infected with lentiviral vectors encoding different single chain and multi-chain SARs by spinfection in the presence of 8 µg/ml of Polybrene® (Sigma, Catalog no. H9268). The Jurkat-NFAT-GFP cells are engineered in such a way that the IL-2 promoter, which carries NFAT binding sites, is cloned upstream of the GFP gene. These cells have been used to study signaling via TCR and CAR. The different SARs were stably expressed in Jurkat NFAT-GFP cells by lentiviral mediated gene transfer, followed by selection with puromycin or blasticidin. No drug selection was used in case the construct lacked an antibiotic resistance gene. The SAR-expressing Jurkat-NFAT-GFP cells were cocultured with the target cells at E:T ratio of approximately 1:2 for approximately 4 hours to 18 hours. When the interaction between SIRs and their target antigen results in activation of the NFAT pathway, GFP expression is induced. […] GFP expression was monitored by FACS analysis. The Jurkat-NFAT-GFP (parental) cells were used as control. The structure of different constructs can be determined based on their names. […] The sequence of the other constructs in the table can be similarly determined from their names and by referring to the different Tables of this disclosure that provide the names and SEQ ID NO of the different modules. Alternatively, the composition and modular architecture of the different SAR constructs can be determined from their sequences by bioinformatics tools, including using nucleic acid and amino acids homology searches. A SAR is considered positive in the assay in case the SAR expressing Jurkat-NFAT-GFP cells show greater % GFP positive cells when cultured with the target cell line as compared to parental Jurkat-NFAT-GFP cells. […] In general, the number +/-, +, 2+, 3+, 4+, 5+ refer to approximately 5%, 10%, 20%, 30%, 40% and 50% GFP positive cells. The % of GFP induction in the above assay is dependent not only the relative strength of the SAR but also, among other factors, on the relative level of expression of the SAR in the JNG cells and the relative level of expression of the target antigen in the target cell line. To control for the difference in gene transduction efficiency of the different SAR constructs, the experiment was conducted with JNG cells transduced with SAR constructs co-expressing a drug resistance gene (e.g., puromycin or PAC) followed by drug selection to generate a stable population of SAR-expressing cells. It is to be noted that the drug resistance gene (e.g., PAC) in the SAR constructs is optional and in vivo studies were conducted with SAR constructs lacking the PAC gene.

Molecule	NFAT-GFP ASSAY: Raji
B1	+/- (refer to approximately 5%, 10%, 20%, 30%, 40% and 50% GFP positive cells)
B2	+/- (refer to approximately 5%, 10%, 20%, 30%, 40% and 50% GFP positive cells)
B3	+/- (refer to approximately 5%, 10%, 20%, 30%, 40% and 50% GFP positive cells)
B4	+ (refer to approximately 5%, 10%, 20%, 30%, 40% and 50% GFP positive cells)
B5	+/- (refer to approximately 5%, 10%, 20%, 30%, 40% and 50% GFP positive cells)

Reference: US20230212319A1, “NOVEL ANTIGEN BINDING DOMAINS AND SYNTHETIC ANTIGEN RECEPTORS INCORPORATING THE SAME” (University of Southern California, priority 2020, published 2023)
